The text below walks through data of patent US20260265393A1 (SHANGHAI CELGEN BIO PHARMACEUTICAL, published 2026).

Values joined by “and” are separate entries in the source; they are usually repeats but may differ in a detail not shown here. Identical values can stand only once. Like-named read-outs stand apart in the source and are kept apart here.

The target in assay [1] is T1, antigen CD27 (soluble, as used in the BLI and SPR experiments) (UniProt P26842 21-192, limits assumed).
T1 sequence (looked up): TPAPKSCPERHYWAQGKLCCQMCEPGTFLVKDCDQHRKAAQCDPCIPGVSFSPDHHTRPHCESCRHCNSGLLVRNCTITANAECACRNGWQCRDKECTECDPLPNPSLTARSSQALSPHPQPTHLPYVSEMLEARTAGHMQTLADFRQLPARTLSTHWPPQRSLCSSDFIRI
The assay is described as follows: SPR, Biacore T200, CM5 chip. In general terms: SPR reads the build-up and loss of mass on a sensor chip optically.

The target of assay [2] is T2, CD27-mFc (Kangdai) (human, UniProt P26842 21-192, limits assumed).
T2 construct: Bought reagent; also called antigen CD27-mFc; solid-phase human CD27; not shown: mouse Fc (mFc)
T2 sequence (looked up): T1 sequence (looked up)
The assay is described as follows: competition ELISA: CD70 coated, CD27-mFc 4.3 µg/mL plus antibody dilutions; competitor CD70. (ELISA stands for enzyme-linked immunosorbent assay.)

Assay [3] concerns the target T2, CD27-mFc (Kangdai). The assay is described as follows: ELISA on coated CD27-mFc.
Assay [4] deals with T2, CD27-mFc (Kangdai). The assay is described as follows: competition ELISA: CD70 coated, CD27-mFc plus antibody dilutions; competitor CD70.
The target of assay [5] is T1, antigen CD27 (soluble, as used in the …). Put plainly: BLI, antibody captured on AHC probe, CD27 in solution. A general note: BLI is a label-free optical method that tracks binding on a fibre tip over time.
For assay [6], the target named is T2, CD27-mFc (Kangdai). Put plainly: ELISA on coated CD27-mFc. The source holds these as a separate data set.
Assay [7] has as its target T3, human CD27 (transmembrane protein) on the cell membrane (human, UniProt P26842 20-260).
T3 construct: whole, on cells; One molecule is used for CD27 on CHO-CD27 cells, on human PBMC T and B cells and on Jurkat reporter cells; also called CHO-CD27
T3 sequence (looked up): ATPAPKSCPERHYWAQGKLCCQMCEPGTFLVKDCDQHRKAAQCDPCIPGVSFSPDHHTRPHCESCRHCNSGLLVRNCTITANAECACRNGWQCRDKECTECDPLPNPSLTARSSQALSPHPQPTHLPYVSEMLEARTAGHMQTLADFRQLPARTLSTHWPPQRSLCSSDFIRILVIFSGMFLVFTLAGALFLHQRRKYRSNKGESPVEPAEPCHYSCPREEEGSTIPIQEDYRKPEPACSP
Put plainly: flow cytometry on CHO cells expressing human CD27.

B1: 13B3-hFc human-mouse chimeric CD27 monoclonal antibody (antibody, V domains shown)
VH: QVQLQQSGPEQVKPGASVKISCKTSGYAFSQSWMNWVKQRPGQGLEWIGRIYPGDGDTNYNGIFKGKATLTADKSSSTAYMQLSSLTSLDSAVYFCASMIRTTYVMDHWGQGTSVTVTS
VL: DIVLTQSPATLSVTPGDSVSLSCRASQSVSNSLHWYQQKSHESPRLLIMYTSQSISGIPSRFSGSGSGTDFTLSINSVETEDFGMYFCQQSNSWPLTFGAGTKLELK
notes: Mouse 13B3 variable regions on human constant regions (expression vectors P378 and P379, made in 293F cells)
Take B1: the equilibrium dissociation constant (Kd) (as a rule, the concentration at which binding is half-saturated) in assay [1] is 0.781 nM; in assay [5] it was 1.23 nM. In addition, the koff (usually the rate constant with which the complex falls apart) in assay [1] turned out to be 0.000954 s⁻¹; in assay [5] it was 0.000222 s⁻¹. In addition, the association rate constant (kon) (in general, the second-order rate constant of association) in assay [1] was 1.22e+06 M⁻¹ s⁻¹; in assay [5], 181000 M⁻¹ s⁻¹. The IC50 (usually the concentration at which inhibition is half-maximal) in the assay with CD27-mFc (Kangdai) [2] was 1.47 µg/mL; in the assay with CD27-mFc (Kangdai) [4] it was 2.06 µg/mL and 13.8 nM. Further, the 50% effective concentration (EC50) (in general, the midpoint of the concentration-response curve) was 0.0344 µg/mL with CD27-mFc (Kangdai) [3]; 0.0503 µg/mL and 0.337 nM with CD27-mFc (Kangdai) [6]; 2.49 µg/mL in assay [7].
